Consider one substance from paper PMC10215190.

The experiment addresses recombinant PhaC (PHA synthase Class III) from Arthrospira platensis (Arthrospira platensis). In words: SEC; Sephadex-G50 column, 100 mM sodium phosphate pH 7.4, 1 mL/min, A280; masses estimated from retention times of standards (alcohol dehydrogenase 150 kDa, BSA 66 kDa, ovalbumin 44 kDa); dimer and monomer peaks both seen.

Broadly, the stoichiometry N is the number of molecules, sites or subunits per partner or assembly. As to “recombinant PhaC (PHA synthase Class III) from Arthrospira platensis (enzyme)”, the stoichiometry N is 2.
